In this experiment the target is Kcnj13 (Kir7.1) from D. rerio fused to mCherry, with N-terminal His-tags (D. rerio). The experiment in a line: mass photometry.

“Kcnj13 (Kir7.1) from D. rerio fused to mCherry, with N-terminal His-tags (natural protein)”: the stoichiometry N is 4.
